{"source": "patent US20180038858A1", "about": "(published 2018)", "key": {"[1]": {"target": "T1, CCR1 on peripheral blood monocytes (human, UniProt P32246 1-355)", "T1 construct": "whole, on cells; also called chemokine (C-C motif) receptor 1", "T1 sequence (looked up)": "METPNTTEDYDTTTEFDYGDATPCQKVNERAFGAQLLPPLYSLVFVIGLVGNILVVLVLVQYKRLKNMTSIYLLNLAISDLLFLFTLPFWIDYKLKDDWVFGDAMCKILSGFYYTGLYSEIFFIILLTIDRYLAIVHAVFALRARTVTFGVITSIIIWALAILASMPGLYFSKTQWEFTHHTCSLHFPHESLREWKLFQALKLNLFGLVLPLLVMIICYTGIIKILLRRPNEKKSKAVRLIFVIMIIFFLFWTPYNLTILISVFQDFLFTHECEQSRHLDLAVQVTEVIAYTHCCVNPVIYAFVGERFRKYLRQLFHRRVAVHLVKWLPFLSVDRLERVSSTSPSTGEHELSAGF", "assay": "flow cytometry, biotinylated chemokine (1 µM) detected with fluorophore-streptavidin, on blood monocytes of a sarcoidosis patient", "experimental": "Peripheral blood from patients and healthy controls was collected in heparin tubes. The red blood cells were lysed using Fix Buffer (Phosphate Buffer Saline (PBS) citrate with 4% paraformaldehyde) for four minutes at 37° C. and Lysing buffer (PBS with 10 mM Tris and 160 mM NH4Cl, pH 7.5) for 15 min at 37° C. The cells were washed in PBS with 2% Bovine Growth Serum, incubated with 10% human serum 15 min at room temperature (RT) and stained with cell specific antibodies together with biotinylated chemokine (1 μM) or the corresponding chemokine receptor antibody at 4° C. for 30 min (Table 1). The biotinylated chemokine was detected via the interaction between biotin and a fluorophore conjugated Streptavidin. The samples were analysed by flow cytometry on a FACS Canto flow cytometer with the FACSDiva software (BD Biosciences)."}, "hCCR5": {"target": "hCCR5 (human, UniProt P51681 1-352)", "sequence (P51681 whole entry)": "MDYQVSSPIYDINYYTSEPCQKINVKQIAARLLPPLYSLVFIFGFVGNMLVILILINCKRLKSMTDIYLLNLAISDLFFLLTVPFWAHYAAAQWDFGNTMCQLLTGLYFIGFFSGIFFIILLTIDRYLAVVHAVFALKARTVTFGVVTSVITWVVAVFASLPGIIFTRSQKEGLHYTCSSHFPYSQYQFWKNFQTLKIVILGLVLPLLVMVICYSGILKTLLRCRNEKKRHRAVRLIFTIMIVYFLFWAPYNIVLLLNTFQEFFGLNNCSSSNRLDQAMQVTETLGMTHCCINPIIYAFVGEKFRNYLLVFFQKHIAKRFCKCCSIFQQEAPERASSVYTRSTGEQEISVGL", "assay": "cell-based or functional assay"}}, "note": "Bridge positions count the residues as written; N and C are the ends. * marks the point of attachment. Biotin = O=C1N[C@H]2[C@H](CS[C@H]2CCCCC(=O)*)N1"}
{"binder": "biotinRANTES (CCL5), RANTES derivatised at Lys(67) with Biotin (ligand, disulfide 10-34, 11-50, Residues 1-68 of mature human RANTES; also called biotinylated RANTES; bRANTES) H-SPYSSDTTPCCFAYIARPLPRAHIKEYFYTSGKCSNPAVVFVTRKNRQVCANPEKKWVREYINSLEK(Biotin)S-OH", "values": [{"measurement": "binding result", "setting": "[1]", "value": "binds"}, {"measurement": "EC50, agonist activity in an Aequorin assay", "setting": "hCCR5", "value": 0.5, "unit": "nM"}]}
